Experimental data taken from the supplement of paper PMC10567573.

B1: C10orf62 (parent)
chain: MLWVQRKRRRKETSECPSDKDKSP
B2: HNF4A (parent)
chain: RFSRQCVVDKDKRNQCRYCRLKKC

Variants of: B1
Assay: protein stability index of a GFP-peptide fusion (GPS, HEK-293T) (PSI 1-6); higher = more stable
Conditions: c terminus: a fixed tail appended
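Note: lentivirally expressed fusions sorted by FACS into six bins by GFP to DsRed ratio, PSI derived from sequencing read proportions per bin multiplied by bin number.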

Variant	protein stability index
L2I	3.21
L2V	2.6
L2Y	2.41
L2C	2.87
L2H	3.52
L2A	3.92
L2T	3.31
L2P	4.59
L2K	2.98
L2N	3.93
L2M	2.89
L2F	1.33
L2E	4
L2D	4.88
L2W	2.53
K11A	4.09
K11C	2.46
K11E	3.06
K11D	3.46
K11G	2.9
K11F	2.73
V4W	2.57
V4C	3.91
V4M	2.52

Variant	protein stability index
V4T	2.73
V4E	4.56
V4K	3.56
V4N	3.87
V4G	3.89
V4H	3.86
V4Y	2.71
V4A	4.6
V4I	2.87
V4P	3.11
V4F	2.94
W3F	3.25
W3Y	2.77
W3S	4.87
W3C	4.07
W3H	4.31
W3P	5.09
W3N	4.66
W3A	4.3
W3T	4.73
W3M	3.46
W3D	4.99
W3R	4.46
W3L	3.73

Variant	protein stability index
W3I	3.25
W3K	4.18
W3Q	3.13
K7V	2.69
K7M	3.06
K7D	3.97
K7P	3.97
K7Q	3.74
K7Y	1.57
K7H	3.69
K7I	1.95
K7W	2.49
K7R	3.29
K7L	1.73
K7A	3.08
K7N	3.9
K7T	3.15
K7C	2.31
K7S	3.85
K7F	2.73
K7G	3.23
R10C	2.51
R10S	3.21
R10L	2.78

Variant	protein stability index
R10Q	3.12
R10E	3.86
R10H	3.45
R10P	4.27
R10W	2.89
R10F	2.33
R10K	3.41
R10D	4.11
R10A	3.85
R10Y	2.78
R10M	3.13
R10N	3.78
R10T	3.79
R8L	2.51
R8Y	3.19
R8S	3.91
R8C	3.34
R8I	3.36
R8F	3.05
R8E	5.08
R8K	3.15
R8Q	4.1
R8A	3.9
R8T	2.95

Variant	protein stability index
R8H	3.89
R8D	3.52
R8G	4.16
R8M	3.74
R8N	3.78
M1F	2.98
M1I	1.24
M1K	3.53
M1L	2.3
M1W	2.83
M1G	4
M1T	3.65
M1N	4.55
M1P	2.83
M1C	3.06
M1V	3.29
M1R	2.59
M1A	2.93
M1Y	3.4
M1H	3.73
R9N	3.18
R9I	3.4
R9K	2.73
R9H	3.32

Variant	protein stability index
R9F	3.64
R9E	3.71
R9A	3.71
R9L	3.08
R9G	3.2
R9D	3.62
R9Y	3.75
R9M	3.63
R9T	3.49
R9C	2.81
R9P	2.26
R9Q	3.2
R9V	3.18
R6I	3.21
R6G	3.54
R6V	2.95
R6F	3.11
R6W	3.21
R6D	3.9
R6M	3.49
R6Q	3.27
R6N	3.87
R6K	3.13
R6H	2.88

Variant	protein stability index
R6L	3.11
R6C	2.27
R6T	3.13
R6E	4.01
R6S	3.42
Q5W	1.93
Q5A	3.98
Q5S	3.85
Q5H	2.97
Q5M	2.62
Q5P	3.11
Q5C	2.61
Q5L	2.4
Q5K	4.1
Q5Y	2.8
Q5D	4.23
Q5F	2.67
Q5I	2.21
Q5N	3.44

Variants of: B2
Assay: as above
Conditions: c terminus: a fixed tail appended

Variant	protein stability index
C24W	1.81
C24T	3.08
C24Y	2.77
C24V	2.34
